Assay results taken from the DeepSol protein solubility set.

Experiment: soluble on expression in E. coli; label from the status in PepcDB or PDB records

Soluble on expression in E. coli, not soluble:
MVRSMLYATDLGLYAPYVMQHALALARTFDAGLYVVHVVEPMGLFAESVLQSYLGEEALQELHGKGAHAFMEGIEQRMLDGFREELGEGHSDLSLIRTVRVVQGEPASVIIEQAHKLEVDLLVLGRHSASAQEGASIGRTAARILQSSGVPVYMVPIMSKALCQKGC
MVRVKRSQLREGCVLAEDVLGKTKRPIIPKNTVITKPLLLVLEKFLVEEVDVEPLLANGEPFPNVDSASTAAAKQPMAFYLEAVQRYKTWFQSWQAGLPVDIGEIRGVIISLFERMAGQKRELLMLHHYATKDEYLHHHAVSVGLLAGFLAMQLGYSEGECHQIALAGVLADCGMAKVSKRILTNPSALTEAEFNEVKQHPVFSYRMVQKIPALNHGAKLAVLQHHERNDGSGYPLGVKAERIHPYSQIVAVADVYHAMTSERLYRRKQSPFRAIETMQREQFGKLSTEAVAALVNNLIGLQTGAVVKLSNGEMAEVMFIPSDEPARPIVKIIETGQLLSLSVQRDIYIEEMVQG
MVRYFGFLANRVCGEKLPQVYRALGMDKPEPVAKVCYAQMVKQFLSRDPFECVLCGGRMVYRRAIAGLNVEGLKKNARDISLLRYMPA
MVSEIVVDVGINEKRVALLEDRELVELFIERNDCERLVGNIYRGRVESVLPGMQAAFIDIGYEKNAFLYVGDAIPQKEFSEDDEEIYSDVKSYNIEEILRPGQEITVQVTKEPIGTKGPRVTTHITLPGRQMVLLPNADYIGISRRIEDEEERAKLRKIAEKIKPKNMGIIVRTVSEGKREEDFKSDLNFLVKLWAKIKQREQSGPVPRCLHKDLSVIYRAVRDIFTWNIDRFVINDRQEYNKVLELVEMISPALKMRVEYFNKNIDLFEYYQIDSMIQKALAKKVWLKCGGYIVIERTEALTVIDVNTGKYVGVNNLEDTVLRTNLDAVKEIGKQLRLRDIGGIIIIDFIDMHDPEHQKQVLEALKQVLKKDRTKTTVVGMTGLGLIEMTRKKVREGLESMMLQDCPYCEGRGKILSPESVARNVEKEISKYFTKTIANAIMVEVHPTVAEVLRGEDNDNLARIQNLFNKKVIIKPSAEVGHEEVKGSCKIKCRNI
MVSIKEHLEELLESFDYSGDVEERIRLLRAAIGRIGNMFYGTENEEIYADQVRRIKLRLRELRETYATSEDNWRELMDNLEELRDQIERLAIRGGIIEK
MVSKAINSAMNQVDGIVVVGSPGRNLEIEDEKVTFIQSQISDVGKRYFIGLEKIDADYYFLLDYDDIFLSNKVNALKRVFENGKGGAAKESEYYNPSLNYISNVIRNRIDWHISEYSFDADFKKYLLKFVEKYSIPTHVSFDKILFAIMLNYGNMHVVNSKLTEIVSHGDSRMHAKRKRKFYSETYKVFEKFKSIPDLNQSCRQYVEYTYDLNRYLSEPTRENYEHLLASGKYPIPLYKRLYYKYYSIMKPE
MVSLEKNDHLMLARQLPLKSVALILAGGRGTRLKDLTNKRAKPAVHFGGKFRIIDFALSNCINSGIRRMGVITQYQSHTLVQHIQRGWSFFNEEMNEFVDLLPAQQRMKGENWYRGTADAVTQNLDIIRRYKAEYVVILAGDHIYKQDYSRMLIDHVEKGARCTVACMPVPIEEASAFGVMAVDENDKIIEFVEKPANPPSMPNDPSKSLASMGIYVFDADYLYELLEEDDRDENSSHDFGKDLIPKITEAGLAYAHPFPLSCVQSDPDAEPYWRDVGTLEAYWKANLDLASVVPELDMYDRNWPIRTYNESLPPAKFVQDRSGSHGMTLNSLVSGGCVISGSVVVQSVLFSRVRVNSFCNIDSAVLLPEVWVGRSCRLRRCVIDRACVIPEGMVIGENAEEDARRFYRSEEGIVLVTREMLRKLGHKQER
MVVAFLIGAGGMFAGMSLFGVNPAEVTQTISSGNASTAQGNLAKINEAYALIDSRYVEDVKDEKLVEGAIQGMLSTLKDPYSTYMDKETAKQFSESLDPELEGIGAEVNKTDGKLIIVSPIKGSPAEKIGIKPNDQILSVDGNSVKDLSREEAVLKIRGKKGTTVAIEIKRAGVADPIVFKIKREKIPIFTVFSSVKQESGKDIGYMQITSFAENTAKEFKDQLKELEKKNIKGLVIDVRGNPGGYLNSVEEILGEIMTDKKPMLQVEQRNGEKKKFSTELKERKPYPISVLIDNGSASASEILAGALKEGEGYDLIGEKTFGKGTVQQAVPFKDGSNIKLTMFKWLTPDGNWIHKKGIKPTVEVKQPDYYHATPIQIEKTLSYNANDVQVKHAQEMLKSLGYVPGREDGYFSKETESALKAFQNANKMEATGQLDKKTAEAIQTKIIEKIRSGENDLQLQSALKLMAK
MVVCSVQRLLLNFDFSENRSRSYHFTMDGKQIATTIPPVFLFNVLESVSGTDDRVLEHHHHHH
MVVRSLLRVSRLTSASCRHASLAVSSTPKPYIPSVTGVQKSMPFDNLLEQYSRVHWDDSVTYDDPNVQKLFKSLMSGSRAALASAITLVESRHPTKRAQGNMLLKMVLDEEREKYKKFGRDSMIFRVGISGSPGVGKSSFIEALGAELTENRGKKVAVLTIDPTSAMTGGSVLGDLTRMQELSRNPKAYIRQSPTSGSLGGVTRGIHEAVILCEGAGYDIVIIETVGVGQSETSVSDMCDMMCLLLSPAHGDELQGVKRGIMEMSDLLVVTKDDGDLKAKAKMTQAEYISALKFMRPRLDVWRPKVMRSSIMDKESVSEVCSSLYEFWDTIGESGDLERRRQDQMKKWMWNHVKDEIMSVFQKHPKIAHLAPKLENEIRSGKITPGLAAETMIRTFFGV
MVYVKSLLRRADNFMYIVKKSSEARAALLVDLVNEEDYKELADKENIDITAVLTTHHHYDHCGGNEGFRRQFPNVMILGGDSRIPAMDRHVKHGDMAEFAGLQIKCLSTPCHTSGHICYHITNPAADSTSPGVVFTGDTLFIAGCGRFFEGTAPQMDVALNEILKNLPVETQIFPGHEYTVANLKFACHVEPGNEKAAQKLEWAQRQIEQGGFTVPSTVAEEKATNPFMRVRESEEIQKSIGTCDAVVGMAKLREMKNKF
MWAAYFEKTLVYKQNVKKSRKSKKEDPAEAEKLMKQALEEYLPKYSELLPIILARGTVTLFKNLALTAKDAMTPKEVEPEEPTEEELAQQRRQQRAAAAPQQLEFKFEVAQGMKAVSTNDPEMEKKYAAENEVVAQKQSGATWTPDELASLVRLSTEKYPAGTPNRWEQMGRVLNRSAEDVIAMAGKMKQMKQEDYTKLLMTTIQQSVPVEEKSEDDWSQAEQKAFETALQKYPKGTDERWERISEEIGSKTKKQVMVRFKQLAEMIRKKKTNDT
MWDLETDRVLNEIKTRNARKVLFQAPEGLKRAVEKEIEFLKTKIDAELMIWGETCFGACDLCDEEVTILGIDLIIHYGHEELSYVHSEIPVVFVHAYFKENEYFLKDVENILEKMENPTVTTTIQFKKALSKFNPVVILGCRAPVDNAENILFVGTGRFHPLMMAYKLKKTVKIYNPITREISEISDQEIKKLIKLRIGRVSKLLLNPPKKIGVVLSTKKGQCRLKSFENVIELLKKNNIEYIPIILNNLSQSYLFYKVDAYVICACPRIVMDDYQNYESTLLTPEELRMYLSNDFEYKFDEILENNFYLEHHHHHH
MWHSIEQAISVETGKSFYISEKKEISTRPASSSSFTCSYDNKEPPPNLSFKITDGHRSYFLKINNKDYLENFQAEAYSLKQLNSLANIASPNVTAIGTSLDKSFLVLDYIDFSKAKPMLWYQLGQQLAQMHYENRHGQFGWQHDNFIGSTIQPNHWSSNWTTFFSDQRIAWQLQLLSERSIMLGNIEHITQVCHDALLHHQVSPCLVHGDLWQGNTGFSGEKAMIFDPACYYGDREVDIAMTELFGHFPDDFYHGYQAEYPLDDGYEQRKLVYNFYHILNHANIFGGIYIDQAKATLSRIMSLPLHLEHHHHHH
MWTEQHVKEIDSIIRKKEDEQLSLPIMEQKLQINNRRYLGSKYKLLEFICKVVRENCTSVSSVADIFGGTGVVADRFNKEGKDIIVNDILYSNYLAYLTWFSNEKVNITKIEKLIKFFNESEPTEDNYVSINFGGTYFTEYNARKIGYVREEIEKMSDELNAREKAILITSLIYAMDKVANTVGHYDAYRRKLDSIKEIKLLMPEFNDGLNNGNKIFKEDANELVRKISADLIYIDTPYNSRQYGDAYHLLENIAEWEKPDLVGVAKKMIDRSHIKSDYCTMKATSAFADLISNIKGKYILVSYNNMAQKGVGRSNAKISSEEIVEILETRGTVEIFETNFQAYTTGKTNIDDHKEILYLCEVSR

Soluble on expression in E. coli, soluble:
MVRKQKRARLIYNPTSGQEIMKKNVAEVLDILESFGYETSAFQTTPRADSAKNEAARASQAGFDLVIAAGGDGTINEVVSGIAPLKRRPKVAIIPTGTTNDFARALKIPRGNPVEATKLIGKNQTIHMDIGRAYNDKYFINIAAAGSLTELTYSVPSQLKTMFGYLAYLVKGAELLPRVRNVPVKVFYDHGVFEGEASMIFVALTNSVGGFETIAPDAKLDDGKFTLILVKTANLFELTDLIRLVLTGGRHINHKKIEYIKTSYLKIIPQGNPPKRMMINLDGEYGGDAPIELRNLKNHIEFFANTDEISDDAITLDTEELVLEAIAQKFAREAESLDEMDKTKEQD
MVSDAAERNLAFALSELDRITAQLKLPRHVEEEAARLYREAVRKGLIRGRSIESVMAACVYAACRLLKVPRTLDEIADIARVDKKEIGRSYRFIARNLNLTPKKLFVKPTDYVNKFADELGLSEKVRRRAIEILDEAYKRGLTSGKSPAGLVAAALYIASLLEGEKRTQREVAEVARVTEVTVRNRYKELVEKLKIKVPIA
MVTHSKFPAAGMSRPLDTSLRLKTFSSKSEYQLVVNAVRKLQESGFYWSAVTGGEANLLLSAEPAGTFLIRDSSDQRHFFTLSVKTQSGTKNLRIQCEGGSFSLQSDPRSTQPVPRFDCVLKLVHHYMPPPGTPSFSLPPTEPSSEVPEQPPAQALPGSTPKRAYYIYSGGEKIPLVLSRPLSSNVATLQHLCRKTVNGHLDSYEKVTQLPGPIREFLDQYDAPL
MVTLEDMSQYLDEFLADARDRIDSLSNAILTLEKIVKEGGSEEEKTELINQIFRDAHTLKGTAATMGFMKLSETAHKMENIFDAIRNSQLELTPELVDLVLDFLDAIDAMVNNIEESGNEGDVDVSDLFERADEFLGGSKKEIKPEEKPKEAEKKEEKVAEEVPSAEGKVYYIKVKFQKDAPLKGVRAFLILSDLEERGEVIWTNPGREIIENGNLEGDVVEFRIVSETPKEELETVIKRHPEVESVEIVEEKKKEEAGEKAVEGKEYVVRVYFQPDTPLKGPRSYLILNDLEKIGEILSTNPSRQDIEEGNLIENKFFEVVLRTSESKEKISEILKKHPDVLNFTITEKEEEKKEEKKEAKKQPPKQPKKPPIIETPKVKISRVIKIDVGHLDKLMNLVGELVITKGRLEQIGERLGDRELFEALSTLSRLLTELQDEIMEMRLTPIAEVFNKFPRMVRDLARKMGKEVEFVMEGADIEVDRTILEKLGDALVHLLRNAVDHGIEPPEERVKLGKPRAGRVELIAKREKNHVVIIVRDDGRGIDPEKVKRKAVERGLITPEEAANLSDEEAINLIFLPGFSTADKVTDVSGRGVGMDVVKEVVKSMNGSISVQTEVGKGTTFILKLPISMAIIQALLIRVEDETYAIPINNILETIEVDPSILKTVGGKPVIVLRGEIIPVIMLHELFGLPAPQVDRFPAIIVDHGAQKVAIGVDELLHKRDIVIKSLGKFLSNVRGFAGATILGDGSVVLIIDIGGLLGGGYSG
MVVSKMNKDAQMRAAINQKLIETGERERLKELLRAKLIECGWKDQLKAHCKEVIKEKGLEHVTVDDLVAEITPKGRALVPDSVKKELLQRIRTFLAQHASL
